# Data as given in PMC11811190, “Cryo-EM structures of the BAF-Lamin A/C complex bound to nucleosomes” (Nature Communications, 2025).
# T1: Lamin A/C IgF domain (411-566) (human, UniProt P02545 411-566)
# T1 construct: Lamin A/C, human, residues 411-566 (IgF domain); MBP cut on-column with TEV protease; also called Lamin A/C (411-566); Ig-fold domain of Lamin A/C; source: E. coli Rosetta 2 (DE3), purified (amylose resin, Superdex 75); not shown: MBP, N-terminal, cleaved
# T1 sequence (looked up): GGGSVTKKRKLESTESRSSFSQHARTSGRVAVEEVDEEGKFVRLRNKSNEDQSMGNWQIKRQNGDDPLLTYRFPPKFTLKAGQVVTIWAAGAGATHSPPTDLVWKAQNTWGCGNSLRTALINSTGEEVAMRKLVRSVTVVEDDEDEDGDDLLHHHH
# B1: Barrier-to-autointegration factor (BAF) (natural protein, human, UniProt O75531 1-89, looked up)
# chain: MTTSQKHRDFVAEPMGEKPVGSLAGIGEVLGKKLEERGFDKAYVVLGQFLVLKKDEDLFREWLKDTCGANAKQSRDCFGCLREWCDAFL
# notes: Barrier-to-autointegration factor (BAF), human, full length; His tag cut with thrombin; also called human BAF; full-length BAF; not shown: His6, N-terminal, cleaved
# Assays:
# [1] = molecular target: T1, Lamin A/C IgF domain (411-566); test: cryo-EM structure; BAF-Lamin A/C IgF-nucleosome complex, high gel mobility (fraction 1); BAF 3-fold, Lamin A/C IgF 6-fold over 0.93 uM nucleosome (193 bp DNA), 30 min 30 °C, GraFix with glutaraldehyde; 3.82 Å; conditions: both partners purified
# [2] = molecular target: the molecule itself; test: as above
binder,measurement,setting,value
B1,binding result,[1],binds
same,binding result,[2],binds
